Test results: US20250122303A1 (HUMMINGBIRD BIOSCIENCE PTE, published 2025)

How the values were obtained:
human HER3 polypeptide = target: T1, human HER3 polypeptide (human, UniProt P21860 20-643); experiment: BLI; after 7 days at 40 °C/80% RH
T1 construct: Recombinant antigen of the ELISAs; also called human HER3 (Sino Biological Inc.); human antigen HER3

hCD16a = target: T2, hCD16a (human, UniProt P08637 17-208, limits assumed); experiment: BLI; after 7 days at 40 °C/80% RH
T2 construct: also called human CD16a

His-tagged human HER3 [1] = target: T3, His-tagged human HER3 (human, UniProt P21860 20-643); experiment: BLI (Octet QK384), antibody on anti-human IgG capture tips, His-tagged human HER3 in solution, global one-site fit
T3 construct: Antigen of the BLI experiments and of the HER2-Fc dimerisation ELISA; also called HER3 His; not shown: His tag
Outline: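 Binding of human HER3 to captured IgG1 anti-HER3 clones is read by interferometry at 25° C. Global one-site fitting yields rate constants and KD.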

[2] = target: T4, human HER3 expressed on cells (HEK293 HER3 O/E cells) (human, UniProt P21860 20-1342); experiment: flow cytometry on HEK293T HER3 O/E cells, 10 ug antibody as printed, FITC-conjugated anti-Fc secondary
T4 construct: Also used here for HER3 on U2OS cells of the PathHunter kit and on cancer cell lines; also called HEK293 cells transfected with vector encoding human HER3; human HER3-expressing cells
Protocol: The cells were washed with buffer (PBS with 2 mM EDTA and 0.5% BSA) and resuspended in FITC-conjugated anti-FC antibody (Invitrogen, USA) at 10 μg/ml for 20 min at 4° C. Cells were washed again and resuspended in 200 μL of FACS flow buffer (PBS with 5 mM EDTA) for flow cytometric analysis using MACSQuant 10 (Miltenyi Biotec, Germany). Unstained WT and transfected HEK293 cells were included in the analysis as negative controls. After acquisition, all raw data were analyzed using Flowlogic software. Cells were gated using forward and side scatter profile percentage of positive cells was determined for native and overexpressing cell populations.

His-tagged human HER3 [3] = target: T3, His-tagged human HER3; experiment: BLI (Octet QK384), antibody on anti-human IgG capture tips, His-tagged human HER3 35-278 nM, global 1:1 fit; kdis Error 1.15E-04
Protocol: The anti-HER3 antibody clones in IgG1 format were analysed for binding affinity to human HER3. Bio-Layer Interferometry (BLI) experiments were performed using the Octet QK384 system (ForteBio). anti-Human IgG Capture (AHC) Octet sensor tips (Pall ForteBio, USA) were used to anti-HER3 antibodies (25 nM). All measurements were performed at 25° C. with agitation at 1000 rpm. […] Sensograms were referenced for buffer effects and then fitted using the Octet QK384 user software (Pall ForteBio, USA). Kinetic responses were subjected to a global fitting using a one site binding model to obtain values for association (Kₒₙ), dissociation (Koff) rate constants and the equilibrium dissociation constant (KD). Only curves that could be reliably fitted with the software (R²>0.90) were included in the analysis.

His-tagged human HER3 [4] = target: T3, His-tagged human HER3; experiment: Bio-Layer Interferometry (Octet QK384); antibody on anti-Human IgG Capture tips, HIS-tagged human HER3 at 35, 69, 139 and 278 nM

Kd (human HER3 polypeptide): < 0.001 nM
Kd (hCD16a): 302 nM
Kd (His-tagged human HER3 [1]): 0.0726 nM
% Parent (HER3 positive) [2]: 73.3%
koff (His-tagged human HER3 [3]): 2.16e-05 s⁻¹
Kd (His-tagged human HER3 [4]): 0.0726 nM
koff (His-tagged human HER3 [4]): 2.16e-05 s⁻¹
kon (His-tagged human HER3 [4]): 297000 M⁻¹ s⁻¹
B1: 10D1F.FcA (anti-HER3 clone 10D1_c89 IgG1) (antibody)
heavy: not shown
light: DIQMTQSPSSVSASVGDRVTITCKASQIVGSNVAWYQQKPGKAPEPLIYSASYLYSGVPSRFSGSGSGTDFTLTISSLQPEDFATYYCQQYSSHPLTFGQGTKLEIKRTVAAPSVFIFPPSDEQLKSGTASVVCLLNNFYPREAKVQWKVDNALQSGNSQESVTEQDSKDSTYSLSSTLTLSKADYEKHKVYACEVTHQGLSSPVTKSFNRGEC
notes: also called 10D1F.A; HMBD-001
